Test results taken from the NTF2 design screens of Basanta et al. (2020).

Test: protease stability score; higher = more stable; yeast display proteolysis, trypsin and chymotrypsin;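 also: relative to predicted unfolded state with 0 unfolded-like and 1 meaning tenfold more protease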

Sequence	protease stability score
DELDHDIERNLRLWLEALYTGDFEFLLRLVDPNVRMHINGVNDHGWKFAEFLIRRADHSEMEIRIRHVHEVNGVLRMDGEVKFDIRQGDKSREKHIEVHMVLMKVNGQWFVKSFEFK	1.47
DELDHEIRHVLHIIHHLLLTGDEEIFEEMADPDPRLDLVYGDKKIHVHGWKNILDMLKRLLDHWRIRHVEIKRITTQGNKAHLDTRSNLIINGRELIVIIELNVVTFNGVMKDMRIKIV	1.65
DELDKLAHIMMEEILRNWVTGDEDRHNELADPTVRMHSIVGDKHLEIHGREIFTEFLKRIKNVTFEIRLTDLKIQGEKAHSHTRLILRFDGQQVERDTEVTIIVINGRVKDVSIIIR	1.06
DELDKRTREFTRLFLEWEETGDFHTMLNFLDPNARVDVNGVHLIGREKMVEHFLTEHERIDHREWHLRRIHYYDGRSDIDGHITLFVDGQEIHIRVHVIFFVVDGRMHMVEKRII	0.751
DELDRISTRLADLFIHLVETGNWEFLKELLDPDVRMIIGDFELVGRETIIEFFEKLERHLGVDHSEIVIERRHSQGEKAELHTRLIVRVNGRKRVIDTRLELHWVDGRLKEINIHEH	1.17
DELDRLAEDWVKIIIHSLKTGDEDTLHKMADPNYQVEIGDFRFHGRERWIHVLREHREELGVTRVHSELHELHTFNGRAVSVVDLHVNGVTLHVIVFVRKVNGRWQDTSQVYKYE	0.491
DELDRLMRHISKLWVELLLTGNEEITSHLADPDARLHINGRDTIGREEYIRMYHEWLNEIRIRDFHIHSIKTQGNKANTDSELDLEVNGKRLDLRITIIILNINGRMKSVKVEVI	0.99
DELDRRAKKMLRIWLEERFTGDEETVSKLADPDTRTQIHVGDKDLVSIGMESVSEFLRRMIHHWRIEHVKVKDTKVFDGVAHLHGEIHGNIDGQRVDVRLEVRVVVINGRIHSMSEEFT	1.61
DELDRTVEEVSRYFMRNYITGNEERLWEMADPHVKFISEHHESHGMEEHKKFLEEAGITNVKFDIHDQKVFNGVVVVNGKIHVNGRTVDVRLISEKFDGRWHLHIIRVD	1.15
DELDSILEEFARVFMQNLETGDEDSSRHYLDPHYRVELDIGDWTIQMHGWRSDHIRRRYLGADHERILIRDYRVYNGRIRVEGQMDITVNGKRVTYHTEFILHVVNGKATRVSMKFE	0.707
DELEDDSRRAMETLIEIEKTGDWDLMYQLADPHVKLDINGRIIHGRDEFERRIHEHLTELGIKHHHVKHFQIRIVDGRMEVRLDGILRFNGKDLDVEIVLIVLKVNGRWLLEHSSVKYK	1.38
DELEDLAQKTHELFVQHYRTGDEDHLRHLLDPNAIMEIGDYHFIGREEILKFLVHWRIHRSEIKHLHVQGDKAEQEVEVDIEIGDKRFRTETHSIWIKINGKWFMHDFTVK	2.17
DELEEDSKKFFEILIKAYWTGDFTTLSRMMDPHVRNDINGRDIHGMEELSRVETEISRKYGADHFDFHIKDFKVQGEKLTVHGRIIIRVNGKTFEHDEIFYLIKIDGKWTWESVEVL	0.989
DELEEDVRSSLKVLLHSHRTGNEELNEKMADPNARVTVDGVEFHGREEMVHWISHIRVERFILRSVHFQGDKLHIDGESDGVVNGRRWRRRTHIIELKVDGKWVLKSLIFE	1.46
DELEEELDQFQKLMVESSKTGDEDTEKKLADPNVRVDINGVILHGMENFVEFMRHWRIKHIHNKEVRFINGRAHVTGDVEGHVNGRDTRTRVTLIIIKINGRWFIEEVKFD	1.37
DELEEELETAERISHEVLDTGDERIWSKLIDPNARLQIGDKEYHGREEVQRFFLEFGFKVSDIHSVKVQGDKIHVDTRSRVDGKEIELQLNSEKINGKWVLRHIHVWKR	1.28
DELEEETERMFRIIIEFMLTGDWKTLYKLFDPNMLMIINGKELHGRESMATALKFWLRHIREDDIKIHHVELQGEKAISDGRSRGEIGDKEQTRKVHIEVIVINGRVHHVRVDIH	0.819
DELEEETREAIRLMFESVKTGDEDSIKHLADPHVRVLINGRDDHGMKILHHLFSRFKNLTIELKRVHVYGEKAEVHTNWHINGRYYHVIWILIKINGRWFIESIEIH	1.61
DELEEETRFILEYLRHSWKTGDWRLESRMADPDVRLDVDGKHLHGREMVSHFAKRLSERVDHSEFIERDLRIQGNKIELHGELILRFNGVEVHRELHLHISKVNGRWVLKDIRIG	0.831
DELEEETRRFAKHWVESLLTGDEDKLSRLMDPNVILDVNGREHIGWERAVHHLSRLLKELGAKHINVRLHELRIYDGVAEIDSRLQIIVGDKTEEHNVKLVITKVDGRWVVKSITIH	1.95
DELEEEVLKALDEWLRSLATGDFDTLTHLMDPNAKTHIGDKHYHGRELLEIWIKRVDHVHRLHFRLRRYRVVGNKVELDGELEIDGEINGRHTNHSEDIRIVLHKIDGRWVVESMIIR	2.53
DELEEEVMEFIRVFIHLLNTGDEDHLHELIDPNVRVEDENEEKHGRDTVEHMQRFFKNLRVTDLKVETFEVQGEFVHVHVDIEERVGDKHFHYKVLYIILKVDGRWLMHQVRFH	2.12
DELEEFLHTIMELVVRNMFTGDEDSFNNLADPDVKSHINGKNAVGREEIIRVWKEWVEEIRTTHYDIHDFTIIGDKAHSDTRVDGTFNGVRDTIDTRVIVLVVDGRLKSLEIRMH	0.986
DELEEILEELFRRMLEWLRTGDEEAMSKLADPHYKLLWNGREHVGREVILERLEKINQHLRIRHIHIHEIRFIDGRVESDTRVDGEVNGRRTEYTQKVIIFIVNGRFKFLEIQLR	1.71
DELEEISDTALKMFEHVVKTGDWRELEKLLDPNVKIYYNGREYHGREEAVRIWKEILDRFGADHFELRLRHKHVQGDKVSYHIELRLHYDGKTHHTFMRIIFLKVDGKWLEHELHIH	2.38

Sequence	protease stability score
DELEEISRRAQELSLRLFHTGDERSWERLVDPHAKLDVNGVDVHGRELVHKFFERNIRELGIKHIHLEHEEVQGNKVKLIMHINVNGVERRLVIIAEKIDGRWVLREHKEE	0.464
DELEEKIHRWAELFLKMVLTGNEEFFRHLFDPDARSDINGVRVIGREDMDEVLKFWLDHLRFEHWVYTEVRIYDGRMEVHTRHDIDVNGVLYRRQMRIHLDVVDGRVKEASITRE	1.37
DELEELAEKIIRRLSELLLTGDFRELERFADPHTRVDINGKEFHGREFFSKLWLEMVRRFDHIEVHVHHMEIQGDKVFIDSRLHLLQGDKKEDREVLFILRKIDGRWILTVWKIR	2.32
DELEELEKEAIKESEDILRTGDEERILRLADPNVRVDIDGVVRHGREWWTRLFSDELRKFKGARIRLKEIRSFDGRIRIDTTLEVDGVTRDMYVISEKVNGRWIIRSIHYE	1.33
DELEELIRKLAELFFEILRTGDEDKLRKLLDPHAKFTFIINGVIIDSIGRDFILKLHEDLWRRIKNVRMEYERVEVQGDKAYFRTRMNFNGKETETNLHLIIVDGKLKQESWEIE	0.738
DELEELLQRAIKMFKDTNETGDEETLEKLLDPNVRYQVGDKEFHGREAIHVIFRRADHWKEMRIRSFRVYDGRAELDVEEVIFYNGVEIRTRTRIHFRKVDGRWYVHSIEIS	1.53
DELEENSRLALELWINSFLTGDEDTTEKMADPHVRLIIDGKLFHGREAFSEHMLERSLRADHTEVRLHDRKIVGDKLIIDTRIHSHVNGVDVTLNVLLIMHKYDGRWRIHSVEIH	1.23
DELEETAERMMKQFTDMWRTGDEEYFWRLADPHVRVNIDGVTRIGREESSEMFERWIRHIRLKSVHIEEVEIQGEKSHSDGRLNEIVDGKEEIVHVTINLIVINGRIHSVEFERE	0.765
DELEEVIQKVAEMWVRLYKTGNEEIIHKLADPDVRAVYNGVENIGMHRHVELLHRLLEEIRIHDIRINRIEVQGEKAHNDTQVHFIVGEKRETRETHIEIVVVNGVIKEVVIRIH	0.629
DELEEYLKRLAKEILELMQTGDEDRWMKLADPNVRIDVNGVELHGRETWVERMEDILREIRSEYRIRHVHSQGNWARVDGELDIKVNGRIIRHKTEFIVVTVNGRIREEKFHIR	0.335
DELEHDAREYFRILEESIRTGDEDLFRKLADPNVRLMIDGKNWIGWESYHEELRQYDHRHVDMRIDHIEVVDGRVHIDGRIEVTITIDGVEHRLNHKLRVEIEKIDGRWHMKFILVE	1.67
DELEHFALKFAEEWLQHYLTGNEEMISKLHDPHVKLHIGDKDLIGWEKFEEFLRETLSRVDHLHFNIRSVQSQGNKIVFDGKYIVIQGDKRYEFDIEFHIVVFNGRVHRIHYESH	1.58
DELEHFLLEILRELAHALETGDEERLTDLIDPHARINVDGVEIHGMDHWRELLHQIRFSIEDMHITHVEVQGDKIIIHGRVHVSNEVDGVENRSETHEIWYMKKFDGRWRVTTIEVK	1.3
DELEHHLFELMEKMIKARLTGDEETLHRLADPDTRIEVGEFEFHGREHWVRFVRELDERIKNIRFEIRLRRYETVGNKIHIDIELRYHQGDKEEHHRTEWILIVFNGRLKSIQIVLH	1.81
DELEHIERRYWHLFVRALETGDEERLDRLVDPHARLDWNGREIVGREHLRHYLSHMRIVIEHHHIKDVNIQGEKIDSDIHLVLTMHVGDKDLEIRTDARSIHLKIDGKWLIESHKIK	0.966
DELEHLANEWMKRVIHHLETGDEESWMKYADPNVRTEINIGDKTEERHGRERYIDFIRRLGFDHVHIHDQRIHHVNGVLFIHLNIKIKQGDYLFTSELDIIVRKIDGQWFVRSINIKVD	0.601
DELEHLERQLAEEILEDFMTGNEENFDHLADPNVKHDINGVEIIGREHYVEWWRRIKNVKIELKRYHIIGDKATIDGHEVFEGRRHKMILELDIVNGQIKRVRFELR	0.986
DELEHLLREFFRLWKTAVETGDFRMLLELADPHVKQHIGDKTFVGWERLIESIERIVHEMRITEVTFTQVQVQGDYAHVDLRVFSEVGDKHLILKVELFLLKVNGRWVLESLRVE	1.62
DELEHMVRLLLKIWIHALITGDEELMMDQADPNVRLIIGDKIHHGMETFEEWVHQFKNLTVKHIVLRHTHYQGNKARIVGHLDIEINGRHHRLQTEIVIHKFNGKWYISDLRFD	0.646
DELEHRSQEAIEHIVHSMQTGNEEEIERNMDPNARIRVGNYHLHGRKEAVRWFNFFLTELRIHDIHIHDVKSQGEWIHIDGHIRGQINGQEHSVRTHIIVYKINGKWHDTSYHLS	0.723
DELEHWAHIILEEFTRLYTTGDEETFNHLADPDTRLFFNGREFIGREKFIDAWRHLRYKEIRLRDHQVDVQGDKMRMILHMRVNSNINGREVEQDVHLEILTKKIDGRWRLKEVHFQTH	2.39
DELEKAIHHILKELLEARLTGDWQMVIDRFDPHVLLRVGDKEFHGREIIRHLHEQFDHVEHVDLRLENHRYQGNKIHLDIKTTMDVRVGEKRVELRTESRIILLKVNGRWIIESVEIN	2.02
DELEKAMRTAVELFRHLIETGDEEFMQRLADPHTQLIVGDKTFHGRDHVVHEWEKFKNVKYRFEDVEFQGDKIILHSTLEFDGRRLETHIQLHKINGRWLLKRVEIK	1.39
DELEKDARKLFEMIYRMLKTGDEDHFLRLADPDVRVHQGDKEIHGMDISKQIVEDLGIQKIEVHVHKVEIQGDKVDITGEVNWNGQNINLIVYTEKVNGKWRIHSVELH	1.61
DELEKDLKDAFRILIEEVKTGDFKSMRRNMDPDARIDIGDKHSVGREEAIHLMEIFYKEWRFEHIDLHDFTLIGNKLELDMRVHGNVDGVRTIVIRRVISEKIDGRWLIRTESIE	0.494
